Consider seven molecules from patent publication US20250250357A1 (NANJING ZAIMING PHARMACEUTICAL, published 2025).

Experiment [1] concerns the target T1, human MSLN-R1-his protein (human, UniProt Q13421 296-390).
T1 construct: Made in HEK293E cells, purified on nickel column; also called hMSLN-R1-his; human MSLN-R1 protein; not shown: His tag
T1 chain: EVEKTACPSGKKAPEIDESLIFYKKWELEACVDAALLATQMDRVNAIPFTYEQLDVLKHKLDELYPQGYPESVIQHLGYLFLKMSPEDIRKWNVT
The experiment in a line: ELISA, coated antigen, antibody 0.002 nM.

In experiment [2] the target is T2, human MSLN-FL-his protein (human, UniProt Q13421 296-580).
T2 construct: Made in HEK293E cells, purified on nickel column; also called hMSLN-FL-his; human MSLN full-length protein; not shown: His tag
The experiment in a line: ELISA, coated antigen, antibody 0.2 nM. Background: In an ELISA, binding on a coated surface is turned into a signal by an enzyme label.
Target sequence in this assay (Q13421 other isoform, or with tags, fused parts or gaps): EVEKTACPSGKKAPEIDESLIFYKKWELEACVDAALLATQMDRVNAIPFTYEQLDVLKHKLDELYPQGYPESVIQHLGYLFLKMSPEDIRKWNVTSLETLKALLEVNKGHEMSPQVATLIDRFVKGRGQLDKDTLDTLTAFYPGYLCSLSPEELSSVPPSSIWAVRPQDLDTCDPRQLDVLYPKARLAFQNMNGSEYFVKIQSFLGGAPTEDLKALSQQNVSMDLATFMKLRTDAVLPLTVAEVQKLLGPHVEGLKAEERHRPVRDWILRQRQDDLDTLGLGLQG

In experiment [3] the target is T2, human MSLN-FL-his protein. The experiment in a line: ELISA, coated antigen, no antibody (blank).
Method: (§1) The plate was sealed with a plastic film and incubated at 4° C. overnight. The next day, the plate was washed twice with PBST, and a blocking buffer [PBS+2% (w/w) BSA] was added for blocking at room temperature for 2 h. The blocking buffer was discarded, and a chimeric antibody or negative control antibody serially diluted from 100 nM was added at 50 μL/well. After incubation at 37° C. for 2 h, the plate was washed 3 times with PBST. […] After incubation at 37° C. for 2 h, the plate was washed 5 times with PBST. A TMB substrate was added at 50 μL/well for incubation at room temperature for 5-10 min, and then a stop solution (1.0 N HCl) was added at 50 μL/well.
The target of experiment [4] is T2, human MSLN-FL-his protein. The experiment in a line: ELISA, coated antigen, antibody 0.0002 nM.
Target sequence in this assay (Q13421 other isoform, or with tags, fused parts or gaps): as above
Method: as §1
Experiment [5] concerns the target T1, human MSLN-R1-his protein. The experiment in a line: ELISA, coated antigen, antibody 20 nM.
Method: as §1
Experiment [6] addresses T2, human MSLN-FL-his protein. The experiment in a line: ELISA, coated antigen, antibody 0.002 nM.
Target sequence in this assay (Q13421 other isoform, or with tags, fused parts or gaps): as above
Method: as §1
The target in experiment [7] is T1, human MSLN-R1-his protein. The experiment in a line: ELISA, coated antigen, no antibody (blank).
Method: as §1
Experiment [8] has as its target T2, human MSLN-FL-his protein. The experiment in a line: ELISA, coated antigen, antibody 2 nM.
Target sequence in this assay (Q13421 other isoform, or with tags, fused parts or gaps): as above
Method: as §1
In experiment [9] the target is T2, human MSLN-FL-his protein. The experiment in a line: ELISA, coated antigen, antibody 200 nM.
Target sequence in this assay (Q13421 other isoform, or with tags, fused parts or gaps): as above
Method: as §1
In experiment [10] the target is T1, human MSLN-R1-his protein. The experiment in a line: ELISA, coated antigen, antibody 2 nM.
Method: as §1
For experiment [11], the target named is T1, human MSLN-R1-his protein. The experiment in a line: ELISA, coated antigen, antibody 0.02 nM.
Method: as §1
Experiment [12] has as its target T1, human MSLN-R1-his protein. The experiment in a line: ELISA, coated antigen, antibody 0.0002 nM.
Method: as §1
The target in experiment [13] is T1, human MSLN-R1-his protein. The experiment in a line: ELISA, coated antigen, antibody 200 nM.
Method: as §1
Experiment [14] deals with T2, human MSLN-FL-his protein. The experiment in a line: ELISA, coated antigen, antibody 20 nM.
Target sequence in this assay (Q13421 other isoform, or with tags, fused parts or gaps): as above
Method: as §1
Experiment [15] deals with T1, human MSLN-R1-his protein. The experiment in a line: ELISA, coated antigen, antibody 0.2 nM.
Method: as §1
Experiment [16] addresses T2, human MSLN-FL-his protein. The experiment in a line: ELISA, coated antigen, antibody 0.02 nM.
Method: as §1

B1: S009-F7.18.10 chimeric antibody (antibody, human IgG1, kappa, V domains shown)
VH: QVQLQQSGAELVRPGTSVKVSCKASGYAFTNYLIEWVKQRPGQGLEWIGVINPGSGGTKYNEKFKGKATLTADKSSSTAYMQLSSLTSEDSAVYFCASDYDYDPFAYWGQGTLVTVSA
VL: DIVMTQSHKFMSTSVGDRVSITCKASQDVSTAVAWYQRKPGQSPKLLIYWASTRHTGVPDRFTGSGSGTDYTLTISYMQAEDLALYYCQQHYSTPYTFGGGTKLEIKR
notes: Human-murine chimeric antibody, human IgG1/kappa constant regions
Turning to B1, the OD450 in experiment [1] was found to be 1.17; in [2], 2.33; in experiment [3], 0.07; in experiment [4], 0.31; in experiment [5], 2.45; in experiment [6] it was 0.97. The OD450 in experiment [7] was 0.08; in experiment [8], 2.28; in experiment [9], 2.4; in experiment [10], 2.45; in [11], 2.05; in experiment [12] it was 0.38. For the same molecule, the OD450 turned out to be 2.77 in experiment [13], 2.29 in [14], 2.46 in experiment [15] and 1.91 in experiment [16].

B2: S009-F7.11.11 chimeric antibody (antibody, human IgG1, kappa, V domains shown)
VH: EVQLQQSGPELVKPGASVKIPCKASGYTITDYNMDWVKQSRGKSLEWIGDVFPYNGDSIYNQKFEGRATLTVDKYSSTAYMELRGLTSEDTAVYFCARRKTGTGYFDVWGTGTTVTVSS
VL: QLVLTQSPAIMSASPGEKVTLTCSASSSVSSTYLSWYLQKPGSSPKLWIYSTSNLASGVPARFSGSGSGTSYSLTISSMEAEDAASYFCHQWSSYPYTFGGGTKLEIKR
notes: as for B1
Regarding B2, the OD450 in experiment [1] came to 0.05; in experiment [2] it was 1.54; in experiment [3], 0.08; in [4], 0.08; in [5] it was 0.06; in experiment [6], 0.16. Besides, the OD450 in [7] was determined as 0.07; in experiment [8], 2.13; in experiment [9], 2.62; in experiment [10], 0.05; in experiment [11], 0.05; in [12], 0.05. Further, the OD450 in experiment [13] is 0.06; in experiment [14] it was 2.35; in [15] it was 0.05; in [16] it was 0.41.

B3: S009-F7.12.13 chimeric antibody (antibody, human IgG1, kappa, V domains shown)
VH: EVQLQQSGPELVKPGASVKIPCKASGYTFTDYNMDWVKQSHGKGLEWIGDINPNTDDTIYNQKFNGKATLTVDKSSSTAYMELRSLTSEDTAVYYCSRRLIGTGYFDVWGTGTTVTVSS
VL: QIVLTQSPAIMSASPGEKVTLTCSASSSVISTYLCWYRQKPGSSPELWIYSTSNLASGVPARFSGSGSGTSYSLTISSMEAEDAASYFCHQWSNYPYTFGGGTKLGMKR
notes: as for B1
For the molecule B3, the OD450 in experiment [1] stood at 0.05; in [2] it was 2.14; in experiment [3], 0.06; in experiment [4], 0.15; in experiment [5], 0.06; in experiment [6] it was 0.6. Moreover, the OD450 in experiment [7] came out at 0.06; in experiment [8], 2.21; in experiment [9], 2.65; in experiment [10], 0.05; in experiment [11], 0.05; in experiment [12], 0.05. The OD450 in experiment [13] worked out at 0.06; in [14], 2.19; in experiment [15], 0.05; in experiment [16] it was 1.44.

B4: S009-F7.21.16 chimeric antibody (antibody, human IgG1, kappa, V domains shown)
VH: QVQLQQPGTELVKPGASVKLSCKASGYTFTTFWMHWVKQRPGQGLEWIGGVNPTNGGTNYNEKFRTKATLTVDKSSTTADMQLSSLTSEDSAVYYCAPHYISSRPGFAYWGQGTLVTVSG
VL: DIVMTQSQKFMSTSGGDRVSVTCKASQNVGTNVAWYQQKPGQSPKALIYSASYRYSGVPDRFTGSGSGTDFILTISNVQSEDLAEYFCQQYNSYPLTFGGGTKLEIKR
notes: as for B1
With B4, the OD450 came out at 0.05 in experiment [1]; 2.15 in [2]; 0.08 in [3]; 0.35 in experiment [4]; 0.06 in experiment [5]; 0.82 in experiment [6]. Further, the OD450 in experiment [7] turned out to be 0.07; in [8], 2.31; in [9], 2.42; in experiment [10] it was 0.05; in experiment [11], 0.05; in experiment [12], 0.04. Besides, the OD450 in experiment [13] stood at 0.17; in [14], 2.46; in experiment [15] it was 0.05; in [16] it was 1.39.

B5: S009-F7.2.3 chimeric antibody (antibody, human IgG1, kappa, V domains shown)
VH: ELQLVESGGDLVKPGGSLKLSCAASGFTFSSNGMSWLRQTPDKRLEWVATISSGGRYTYYPDSVKGRFTISRDNAKNTLYLQMSSLKSEDTAMYYCARRGIYDYFDCWGQGTTLTVSS
VL: DIQMTQSPASLSISVGETVTITCRASENIHSSLAWYQQKQGKSPQLLVYAATNLADGVPSRFSGSGSGSQYSLKINSLQSEDFGTYYCQHFWGTPWTFGGGTKLDIKR
notes: as for B1
For B5, the OD450 in experiment [1] came out at 0.06; in [2] it was 2.3; in [3] it was 0.06; in experiment [4], 0.15; in [5] it was 0.08; in experiment [6], 0.41. The OD450 in experiment [7] came to 0.07; in [8], 2.5; in [9], 2.91; in [10], 0.08; in experiment [11], 0.06; in [12], 0.06. For the same molecule, the OD450 in [13] amounted to 0.1; in [14], 2.5; in experiment [15] it was 0.06; in [16], 1.28.

B6: S009-F7.6.17 chimeric antibody (antibody, human IgG1, kappa, V domains shown)
VH: QVQLQQSGAELARPGASVKMSCKASGYTFTTYTMHWVKQRPGQGLEWIGYISPTGDFTKYNQKFKDKATLTTDKSSNTAFMQLSSLTSEDSAVYYCARWNGTVWFAYWGQGTLVTVSA
VL: DIVMTQSQKFMSTSVGDRVTVTCKASQALGTNVAWYQQKPGQSPKVLIYSASYRYSGVPYRFAGGGSGTDFTLTITNVQSEDLAEYFCQQYNNYPLTFGAGTKLELKR
notes: as for B1
With B6, the OD450 in [1] was determined as 0.05; in [2] it was 2.4; in experiment [3], 0.08; in experiment [4], 0.22; in experiment [5] it was 0.06; in experiment [6] it was 0.84. Moreover, the OD450 stood at 0.07 in [7]; 2.34 in experiment [8]; 2.75 in experiment [9]; 0.05 in experiment [10]; 0.05 in experiment [11]; 0.05 in experiment [12]. Moreover, the OD450 came to 0.08 in experiment [13], 2.49 in experiment [14], 0.05 in experiment [15] and 1.78 in experiment [16].

B7: S009-F7.23.19 chimeric antibody (antibody, human IgG1, kappa, V domains shown)
VH: EVKLVESGGGLVQPGGSLSLSCAASGFTFTDYYMSWVRQPPGKALEWLGFIRSKANAYTTEYSASVKGRFTISRDNSQSILYLQMNDLRAEDSATYYCARYYYYGSGYVWYFDVWGTGTTVTVSS
VL: DIVMTQSQKFMSTSVGDRVSVTCKASQSVGTNVAWYQQKPGQFPKALIYSASYRYSGVPDRFTGSGSGTDFTLTIINVQSEDLAEYFCQQYNSYPLTFGAGTKLELKR
notes: as for B1
For B7, the OD450 in experiment [1] was 0.05; in [2], 2.22; in [3], 0.06; in [4], 0.11; in [5] it was 0.05; in [6] it was 0.41. The OD450 in [7] was 0.06; in experiment [8], 2.4; in [9], 2.5; in experiment [10] it was 0.05; in experiment [11], 0.05; in experiment [12], 0.05. Besides, the OD450 in [13] stood at 0.08; in experiment [14], 2.46; in [15], 0.05; in experiment [16] it was 1.32.
